Experiments:
[1] = tested on: editable stop codons; assay: Transfection of in vitro transcribed iADAR mRNA circuits, flow cytometry (mNeonGreen positive cells); type: cell-based, human; conditions: 100 ng mRNA; positive = greater than top 1% of non-transfected cells; ~48 hours
Description: In this case, the dADAR and ADAR constructs serve as negative and positive controls respectively. For the BAD(V) construct, cells only express mNeonGreen if A-1331852 is present during the transfection (see e.g., FIG. 61B).
To test this, the 3′ end of the plasmid was subsequently digested using Pmel, a DNA clean-up was performed, ARCA-capped mRNA was transcribed with T7 polymerase, the remaining DNA were digested with DNAse I, and a poly-A tail was added with E. coli Poly(A) Polymerase (all reagents and protocols from NEW ENGLAND BIO's HiScribe® T7 ARCA mRNA Kit (with tailing)). 70,000 HEK293FT cells were then transfected in suspension with 100 ng of each mRNA construct using Lipofectamine™ MessengerMAX™ Transfection Reagent. Cells were also treated with either DMSO or 1 μM of A-1331852. ˜48 hours after transfection, cells were analyzed by flow cytometry. mNeonGreen positive cells were determined as greater than the top 1% of gated non-transfected HEK cells (NT).

[2] = target: NS3a-genotype 1b (Hepatitis C virus genotype 1b, UniProt P26662); conditions: disrupted by NS3a-targeting drugs; read-out: affinity of basal complex; cited from earlier work
[3] = tested on: 4×UAG MS2 reporter; assay: 4×UAG MS2 reporter co-transfected with iADAR variants, flow cytometry; type: cell-based, human; conditions: 48 hours, n=3
Description: HEK293FT cells were co-transfected with the dual-input iADAR, the 4×UAG-MS2 reporter, and either EGFP(R96M) or EGFP(R96M)-AlfaTag on day 0. At the time of transfection, 500 nM of A-1331852 or DMSO was added to their respective conditions. 48 hours after transfection, cells were lifted and run via flow cytometry. The median mCherry to mNeonGreen ratio was computed for transfected cells were gated by BFP expression and mCherry expression. The experiment was then analyzed via one-way ANOVA (n=3 transfected cell populations per condition).
HEK293FT cells were co-transfected with the 4×UAG MS2 reporter and either an MCP-ADAR containing a peptide insertion at the 5′ RNA binding site (see e.g., FIG. 34b, Pep), grazoprevir iADAR (Pep-NS3) or a mutant version of the iADAR (Pep-NS3 (K690R)). At the time of transfection, 3 μM of DMSO or grazoprevir was added. 48 hours after transfection, cells were lifted and run via flow cytometry. […] The experiment was then analyzed via two-way ANOVA (n=3 transfected cell populations per condition).
To test this, LINC-ADAR constructs were created with WT, L699G, or F697Y mutations (see e.g., FIG. 35b) and HEK293FT cells were co-transfected with them and the 4×UAG-MS2 reporter in the presence of 2 μM grazoprevir or DMSO vehicle. 48 hours after transfection and drug treatment, cells were lifted and analyzed by flow cytometry. […]

## MCP_ADAR2-DD(E396A & E488Q)_mCherry_FLAG_P2A_T2A_loop(UAG-UAG)_MS2(C)_HaloTag_loop(UAG-UAG)_MS2(C)_P2A_T2A HA_mNeonGreen(M10K) [dADAR mRNA]
[1]
  population of mNeonGreen positive cells: insignificant population

## MCP_ADAR2-DD(E488Q)_mCherry_FLAG_P2A_T2A_loop(UAG-UAG)_MS2(C)_HaloTag_loop(UAG-UAG)_MS2(C)_P2A_T2A_HA_mNeonGreen(M10K) [ADAR mRNA]
[1]
  population of mNeonGreen positive cells: significant population of mNeonGreen positive cells

## apo NS3a reader peptide, SEQ ID NO: 261, GELDELVYLLDGPGYDPIHSD [ANR]
[2]
  Kd: 10 nM

B1: dual-input iADAR: N-terminal BAD, ALFA-PE at 5' RNA binding site, ADAR2-DD (F697Y), tandem AlfaNb and Bcl-xL at C-terminus (protein)
chain: MASNFTQFVLVDNGGTGDVTVAPSNFANGIAEWISSNSRSQAYKVTCSVRQSSAQNRKYTIKVEVPKGAWRSYLNMELTIPIFATNSDCELIVKAMQGLLKDGNPIPSAIAANSGIYGGSGSGAGSGSPAGGGAPGSGGGSTGAPPNLWAAQRYGRELRRMSDEFVDSFKKASQLHLPQVLADAVSRLVLGKFGDLTDNFSSPHARRKVLAGVVMTTGTDVKDAKVISVSTGTKCINGEYMSDRGLALNDCHAEIISRRSLLRFLYTQLELYLNNKDDQKRSIFQKSERGGFRLKENVQFHLYISTSPCGDARIFSPHEPILEEPAASGSGPGRLEEELRRRLSPGTGDRHPNRKARGQLRTKIESGQGTIPVRSNASIQTWDGVLQGERLLTMSCSDKIARWNVVGIQGSLLSIFVEPIYFSSIILGSLYHGDHLSRAMYQRISNIEDLPPLYTLNKPLLSGISNAEARQPGKAPNFSVNWTVGDSAIEVINATTGKDELGRASRLCKHALYCRWMRVHGKVPSHLLRSKITKPNVYHESKLAAKEYQAAKARLFTAFIKAGLGAWVEKPTEQDQYSLTGSGGTAEVQLQESGGGLVQPGGSLRLSCTASGVTISALNAMAMGWYRQAPGERRVMVAAVSERGNAMYRESVQGRFTVTRDFTNKMVSLQMDNLKPEDTAVYYCHVLEDRVDSFHDYWGQGTQVTVSSGAGSGASSNRELVVDFLSYKLSQKGYSWSQFSDVEENRTEAPEGTESEMETPSAINGNPSWHLADSPAVNGATGHSSSLDAREVIPMAAVKQALREAGDEFELRYRRAFSDLTSQLHITPGTAYQSFEQVVNELFRDGVNWGRIVAFFSFGGALCVESVDKEMQVLVSRIAAWMATYLNDHLEPWIQENGGWDTFVELYGNNGSSELIKENMHMKLYMEGTVDNHHFKCTSEGEGKPYEGTQTMRIKVVEGGPLPFAFDILATSFLYGSKTFINHTQGIPDFFKQSFPEGFTWERVTTYEDGGVLTATQDTSLQDGCLIYNVKIRGVNFTSNGPVMQKKTLGWEAFTETLYPADGGLEGRNDMALKLVGGSHLIANIKTTYRSKKPAKNLKMPGVYYVDYRLERIKEANNETYVEQHEVAVARYCDLPSKLGHKLN
[3]; 500 nM of A-1331852
  median relative fluorescence with both A-1331852 and EGFP(R96M)-AlfaTag, fold greater than AlfaTag alone: ~4.6 ×
[3]; one-way ANOVA
  median relative fluorescence with AlfaTag and DMSO vs negative condition or A-1331852 treatment: significantly higher

Source: US12565665B2, “Compositions and methods for controlled mRNA translation and stability” (TRUSTEES OF BOSTON UNIVERSITY, priority 2022, dated 2026)
